The text below walks through data of patent publication US20030082173A1 (ST JUDE CHILDREN S RESEARCH HOSPITAL, published 2003).

The target in this assay is T1, calcium-signal modulating cyclophilin ligand (CAML), human, full length (human, UniProt P49069 1-296).
T1 construct: mature; In the co-immunoprecipitation it was expressed from pBJ5 in 293T cells
T1 sequence (looked up): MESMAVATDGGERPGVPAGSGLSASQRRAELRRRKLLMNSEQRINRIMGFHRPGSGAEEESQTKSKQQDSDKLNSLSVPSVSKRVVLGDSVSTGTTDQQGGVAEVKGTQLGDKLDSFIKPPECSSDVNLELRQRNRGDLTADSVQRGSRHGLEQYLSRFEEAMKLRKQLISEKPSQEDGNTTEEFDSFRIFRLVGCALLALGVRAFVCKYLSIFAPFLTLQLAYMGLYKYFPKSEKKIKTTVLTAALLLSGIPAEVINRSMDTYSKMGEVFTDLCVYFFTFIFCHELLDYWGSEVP
Kind of assay: yeast two-hybrid screen of a human B-lymphocyte cDNA library with full-length CAML as bait.

B1: Transmembrane Activator and CAML-Interactor protein TACI-1 (human, full length, 293 amino acids) (receptor)
chain: MSGLGRSRRGGRSRVDQEERFPQGLWTGVAMRSCPEEQYWDPLLGTCMSCKTICNHQSQRTCAAFCRSLSCRKEQGKFYDHLLRDCISCASICGQHPKQCAYFCENKLRSPVNLPPELRRQRSGEVENNSDNSGRYQGLEHRGSEASPALPGLKLSADQVALVYSTLGLCLCAVLCCFLVAVACFLKKRGDPCSCQPRSRPRQSPAKSSQDHAMEAGSPVSTSPEPVETCSFCFPECRAPTQESAVTPGTPDPTCAGRWGCHTRTTVLQPCPHIPDSGLGIVCVPAQEGGPGA
notes: Untagged full-length protein expressed from pBJ5 on TAg Jurkat T cells for flow cytometry and reporter assays; In the yeast two-hybrid tests it was fused to a GAL4 domain (pACT or pAS1); also called TACI protein; TCB
For B1, the binding result is listed as “binds”.
